From PMC8521305

Target: glycophorin A (GlyA) TMH
Test: SEC

stoichiometry N (helices per nanodisc): 2
Substance: glycophorin A (GlyA) TMH (domain or fragment)
